# Measured values: patent publication US20020151471A1 (published 2002)
# T1: Factor VII preparation 1 (recombinant human FVII produced serum-free in CHO clone E11, Example 3) (human, UniProt P08709 61-466, N-linked oligosaccharide chains (Factor VII is normally glycosylated at Asn 145 and Asn 322); 98% of chains contain sialic acid, 6% contain fucosylated antenna)
# T1 construct: The preparations differ only in glycoform pattern
# T1 sequence (looked up): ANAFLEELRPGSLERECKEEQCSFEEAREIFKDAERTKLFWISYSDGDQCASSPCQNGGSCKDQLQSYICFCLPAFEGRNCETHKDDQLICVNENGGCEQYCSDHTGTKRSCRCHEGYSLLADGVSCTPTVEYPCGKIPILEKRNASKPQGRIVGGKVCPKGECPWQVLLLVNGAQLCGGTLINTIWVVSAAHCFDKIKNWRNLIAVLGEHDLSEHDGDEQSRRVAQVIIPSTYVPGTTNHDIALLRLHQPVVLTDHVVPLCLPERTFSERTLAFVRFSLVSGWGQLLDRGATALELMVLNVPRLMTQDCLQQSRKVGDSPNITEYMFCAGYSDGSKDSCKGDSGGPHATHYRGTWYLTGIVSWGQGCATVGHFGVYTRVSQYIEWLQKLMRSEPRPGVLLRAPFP
# T2: Factor VII preparation 5 (recombinant human FVII produced serum-free in CHO clone E11, Example 3) (human, UniProt P08709 61-466, N-linked oligosaccharide chains (Factor VII is normally glycosylated at Asn 145 and Asn 322); 86% of chains contain sialic acid, 21% contain fucosylated antenna)
# T2 construct: The preparations differ only in glycoform pattern
# T2 sequence (looked up): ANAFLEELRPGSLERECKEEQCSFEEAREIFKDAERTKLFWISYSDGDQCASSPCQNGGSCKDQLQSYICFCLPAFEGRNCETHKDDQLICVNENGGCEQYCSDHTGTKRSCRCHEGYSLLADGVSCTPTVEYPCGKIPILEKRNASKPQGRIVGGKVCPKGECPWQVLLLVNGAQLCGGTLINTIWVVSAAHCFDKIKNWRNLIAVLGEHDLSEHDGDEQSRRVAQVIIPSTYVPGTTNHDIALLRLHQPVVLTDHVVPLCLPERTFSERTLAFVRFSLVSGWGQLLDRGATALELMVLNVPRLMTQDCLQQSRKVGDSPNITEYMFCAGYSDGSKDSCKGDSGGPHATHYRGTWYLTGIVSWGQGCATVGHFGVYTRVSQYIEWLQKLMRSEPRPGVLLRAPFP
# T3: Factor VII preparation 2 (recombinant human FVII produced serum-free in CHO clone E11, Example 3) (human, UniProt P08709 61-466, N-linked oligosaccharide chains (Factor VII is normally glycosylated at Asn 145 and Asn 322); 94% of chains contain sialic acid, 13% contain fucosylated antenna)
# T3 construct: The preparations differ only in glycoform pattern
# T3 sequence (looked up): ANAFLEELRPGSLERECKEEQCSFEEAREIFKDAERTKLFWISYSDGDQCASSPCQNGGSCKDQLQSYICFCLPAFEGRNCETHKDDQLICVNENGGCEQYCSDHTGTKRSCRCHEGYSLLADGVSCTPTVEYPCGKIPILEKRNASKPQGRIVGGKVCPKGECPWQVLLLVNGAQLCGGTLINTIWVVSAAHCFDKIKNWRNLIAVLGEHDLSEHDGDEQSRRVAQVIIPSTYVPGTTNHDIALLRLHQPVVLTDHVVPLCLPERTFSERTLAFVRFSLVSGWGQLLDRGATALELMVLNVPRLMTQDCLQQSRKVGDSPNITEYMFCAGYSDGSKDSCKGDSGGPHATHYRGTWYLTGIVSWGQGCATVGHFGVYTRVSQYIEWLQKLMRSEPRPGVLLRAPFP
# B1: tissue factor (TF) (receptor, UniProt P13726 33-251, looked up)
# chain: SGTTNTVAAYNLTWKSTNFKTILEWEPKPVNQVYTVQISTKSGDWKSKCFYTTDTECDLTDEIVKDVKQTYLARVFSYPAGNVESTGSAGEPLYENSPEFTPYLETNLGQPTIQSFEQVGTKVNVTVEDERTLVRRNNTFLSLRDVFGKDLIYTLYYWKSSSSGKKTAKTNTNEFLIDVDKGENYCFSVQAVIPSRTVNRKSTDSPVECMGQEKGEFRE
# Key:
# Assay in all cases: TF binding assay; method not stated in the example
# [1] = biological target: T1, Factor VII preparation 1 (recombinant …)
# [2] = biological target: T2, Factor VII preparation 5 (recombinant …)
# [3] = biological target: T3, Factor VII preparation 2 (recombinant …)
binder,measurement,setting,value
B1,Kd,[1],2.8 nM
same,Kd,[2],2.8 nM
same,Kd,[3],2 nM
